Data as given in patent publication US20190375846A1 (ULTRAHUMAN ONE, published 2019).

Legend:
[1] = target: T1, cynomolgus monkey GITR at the cell surface (cynomolgus monkey); experiment: flow cytometry, cyno GITR-transfected murine blastoma cells, 10,000-13.7 ng/ml
T1 construct: whole, on cells; also called cyno GITR+ cells
Procedure: (§1) Concentration-dependent binding to GITR at the cell surface was analysed using flow cytometry.

[2] = target: T2, human GITR at the cell surface (human, UniProt Q9Y5U5 26-241); experiment: flow cytometry, human GITR-transfected murine blastoma cells, 10,000-13.7 ng/ml
T2 construct: whole, on cells; The cell type is named in the assay field of each row; also called human GITR+ cells; CHO-K1 human GITR+ cells
T2 sequence (looked up): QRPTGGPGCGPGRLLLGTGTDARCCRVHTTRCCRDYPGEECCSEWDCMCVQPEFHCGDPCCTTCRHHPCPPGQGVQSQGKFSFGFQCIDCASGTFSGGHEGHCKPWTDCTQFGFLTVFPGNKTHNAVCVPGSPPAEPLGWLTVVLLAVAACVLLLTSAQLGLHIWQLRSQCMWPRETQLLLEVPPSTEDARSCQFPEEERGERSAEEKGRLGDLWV
Procedure: as §1

[3] = target: T2, human GITR at the cell surface; experiment: flow cytometry on CHO-K1 human GITR+ cells; competitor: soluble human GITRL
[4] = target: T1, cynomolgus monkey GITR at the cell …; experiment: cell-based or functional assay
[5] = target: T2, human GITR at the cell surface; experiment: cell-based or functional assay
[6] = target: T3, human GITR-Fc (human, UniProt Q9Y5U5 26-161); experiment: HTRF competition: unlabelled IgG1 titrated 0.003-100 µg/ml against terbium-labelled VH1/VL1 IgG on biotinylated human GITR-Fc with SA-XL665, 665/615 ratio
T3 construct: Recombinant GITR-Fc; also called hGITR-Fc; hGITR; not shown: Fc part
T3 sequence (looked up): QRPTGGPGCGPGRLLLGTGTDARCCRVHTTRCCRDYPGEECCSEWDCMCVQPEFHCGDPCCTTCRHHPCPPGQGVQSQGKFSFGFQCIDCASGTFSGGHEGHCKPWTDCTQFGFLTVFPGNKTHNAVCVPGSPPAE
Procedure: A competition HTRF assay was established to examine epitope competition against VH1/VL1 IgG by grafted and library-derived clones. The purified VH1/VL1 IgG was labelled with terbium using a labelling kit (CisBio) per the manufacturers instructions. The final reaction mix contained biotinylated human GITR-Fc, SA-XL665 (CisBio), terbium-labelled parental […], and competitor IgG of interest, prepared as described above, in a total reaction volume of 20 μl in 1× assay buffer [50 mM sodium phosphate, pH 7.5, 400 mM potassium fluoride, and 0.1% BSA (w/v)]. Reagents were added sequentially on a MiniTrak Liquid Handling Platform (Perkin-Elmer) into 384-well low-volume black plates (Nunc). Reactions proceeded for 1 h at room temperature, and plates were subsequently read on a plate reader with excitation at 340 nm and two emission readings at 615 nm (measuring input donor fluorescence from VH1-VL1-cryptate) and 665 nm (measuring output acceptor fluorescence from SAXL665). Readings were expressed as 665 nm/615 nm ratios.
To examine the competition of the library-derived clones with the unaltered, closest-germline grafted CDRs of VH1/VL1 IgG, an Homogeneous Time Resolved Fluorescence (HTRF) assay was established. This assay incorporated terbium-labelled VH1/VL1 IgG, Biotinylated hGITR-Fc and streptavidin-XL665, in solution-phase binding. […]

[7] = target: T3, human GITR-Fc; experiment: ELISA of IgG1 proteins
Procedure: (§2) To coat Greiner Bio-One High bind ELISA plates, target proteins were diluted to 1 μg/ml in carbonate buffer and added at 100 μl per well, at 4° C., o/n. Coated plates were washed 3× with PBS pH7.4, blocked with 1% BSA in PBS (380 μl/well) for 1 hr at RT, then washed 3× with PBS-Tween 20 (PBST). GITR antibodies (100 μl/well; diluted in PBST) were then added and then incubated 1 hr at RT. Plates were then washed 3× with PBST and goat anti-human kappa chain-HRP added (100 μl/well) at RT, for 1 hr. Plates were then washed 3× with PBST and twice with PBS before the addition of 100 μl TMB per well. Reactions were stopped by adding 100 μl 2M H₂SO₄/well and OD was read on a plate reader at 450 nm. IgG binding analysis via ELISA on negatively charged biomolecular surfaces were performed as previously described (see Mouquet et al., 2010, Nature 467: 591-595).
To examine the influence of these mutations on immunogenicity and function, five further designer mutants (A6.1 to A6.5, see Table 4 for CDR sequences) were also submitted for Epibase analysis (Table 5). […] Cyno GITR binding was greatly diminished for all of clones A6.2 to A6.5.

[8] = target: T3, human GITR-Fc; experiment: SPR (Biacore), Fab over GITR-Fc captured on anti-human Fc, 37 C, 1:1 model
Procedure: (§3) For affinity estimation, anti-human IgG Fc antibody was amine coupled at pH 5 onto three flow cells (Fc 1 to Fc 3) of a Biacore CM5 chip. The level of anti-Fc antibody immobilised onto the chip was approximately 550 RU. Human and cyno GITR-Fc and irrelevant receptor-Fc proteins were then captured onto the anti-Fc antibodies (by injecting over the antibody surface until nearly/completely saturated) in order that 80-100 RU were captured. Fab monomers were then injected over the Fc proteins captured on the chip at 37° C. a flow rate of 50 μl/min for 120 seconds, followed by Biacore running buffer (HBS-EP) being flowed over the chip for 240 seconds at 50 μl/min. The chip was regenerated between cycles using 2×15 second injections of 10 mM Glycine pH 2. The concentrations of Fab samples tested were 400, 200, 100, 50, 25, 12.5, and 6.25 nM. A Biacore running buffer control (0 nM) was also included as a control.
(§4) Monomeric Fab fragments were generated and flowed in the mobile phase on human and cyno GITR-Fc coated biosensor chips, to derive 1:1 binding values.

[9] = target: T4, cynomolgus monkey GITR-Fc (cynomolgus monkey (Macaca fascicularis)); experiment: as above
T4 construct: also called cyno GITR-Fc; cGITR-Fc
Procedure: as §3, §4

[10] = target: T4, cynomolgus monkey GITR-Fc; experiment: SPR (Biacore), Fab over GITR-Fc captured on anti-human Fc
Procedure: as §3, §4

[11] = target: T3, human GITR-Fc; experiment: direct titration ELISA on coated human GITR-Fc, IgG1 0.001-1 µg/ml, OD 450 nm
Procedure: as §2
The 17 purified IgGs described above were then tested for binding to human and cyno GITR-Fc in direct titration ELISA format.

B1: VH1/VL1 IgG1 (antibody, V domains shown)
VH: QVTLRESGPALVKPTQTLTLTCTFSGFSLSTSGMGVGWIRQPPGKALEWLAHIWWDDDKYYNPSLKSRLTISKDTSKNQVVLTMTNMDPVDTATYYCARTRRYFPFAYWGQGTLVTVSS
VL: EIVMTQSPATLSVSPGERATLSCKASQNVGTNVAWYQQKPGQAPRLLIYSASYRYSGIPARFSGSGSGTEFTLTISSLQSEDFAVYYCQQYNTDPLTFGGGTKVEIK
notes: Full-length human IgG1; also called hVH1/VL1; G-VH1/VL1
concentration at maximum MFI [1]: ~1110 ng/mL | concentration at maximum MFI [2]: ~1110 ng/mL | fold reduction of binding signal in the presence of 10 µg/ml soluble GITRL [3]: > 10 fold | EC50 of FcγRIIIa activation, Promega ADCC reporter assay, CHO-K1 target cells expressing cyno GITR [4]: 160 nM | EC50 of FcγRIIIa activation, Promega ADCC reporter assay, CHO-K1 target cells expressing human GITR [5]: 35.6 nM | IC50 (read off the curve) [6]: ~1 µg/mL

B2: A6.2 IgG1 (antibody, V domains shown)
VH: EVQLVESGGGLVQPGGSLRLSCAASGFSLSTSGYGVGWVRQAPGKGLEWLAHIWWDDDKYYVDSVKGRFTISRDNAKNSLYLQMNSLRAEDTAVYYCARTRQYFPFAYWGQGTLVTVSS
VL: EIVLTQSPATLSLSPGERATLSCRASQSVGSNLAWYQQKPGQAPRLLIYSASNRYTGIPARFSGSGSGTDFTLTISSLEPEDFAVYYCQQYSTNPLTFGGGTKVEIK
notes: Human IgG1, designer mutant of D-A6; built as m28; also called Clone A6.2
binding result [7]: binds

B3: A6.3 IgG1 (antibody, V domains shown)
VH: EVQLVESGGGLVQPGGSLRLSCAASGFSLSTSGYGVSWVRQAPGKGLEWLAHIWWDDDKYYVDSVKGRFTISRDNAKNSLYLQMNSLRAEDTAVYYCARTRQYFPFAYWGQGTLVTVSS
VL: EIVLTQSPATLSLSPGERATLSCRASQSVGSNLAWYQQKPGQAPRLLIYSASNRYTGIPARFSGSGSGTDFTLTISSLEPEDFAVYYCQQYSTDPLTFGGGTKVEIK
notes: Human IgG1, designer mutant of D-A6; built as m28; also called Clone A6.3
binding result [7]: binds

B4: A6.4 IgG1 (antibody, V domains shown)
VH: EVQLVESGGGLVQPGGSLRLSCAASGFSLSTSGYGMSWVRQAPGKGLEWLAHIWWDDDKYYVDSVKGRFTISRDNAKNSLYLQMNSLRAEDTAVYYCARTRQYFPFAYWGQGTLVTVSS
VL: EIVLTQSPATLSLSPGERATLSCRASQSVGSNLAWYQQKPGQAPRLLIYSASNRYTGIPARFSGSGSGTDFTLTISSLEPEDFAVYYCQQYSTDPLTFGGGTKVEIK
notes: Human IgG1, designer mutant of D-A6; built as m28; also called Clone A6.4
binding result [7]: binds

B5: A6.5 IgG1 (antibody, V domains shown)
VH: EVQLVESGGGLVQPGGSLRLSCAASGFSLSTSGYGMGWVRQAPGKGLEWLAHIWWDDDKYYVDSVKGRFTISRDNAKNSLYLQMNSLRAEDTAVYYCARTRQYFPFAYWGQGTLVTVSS
VL: EIVLTQSPATLSLSPGERATLSCRASQSVGSNLAWYQQKPGQAPRLLIYSASNRYTGIPARFSGSGSGTDFTLTISSLEPEDFAVYYCQQYSTDPLTFGGGTKVEIK
notes: Human IgG1, designer mutant of D-A6; built as m28; also called Clone A6.5
binding result [7]: binds

B6: D-A6 Fab (Fab, V domains shown)
VH: EVQLVESGGGLVQPGGSLRLSCAASGFSLSTSGYGVGWVRQAPGKGLEWLAHIWWDDDKYYVDSVKGRFTISRDNAKNSLYLQMNSLRAEDTAVYYCARTRQYFPFAYWGQGTLVTVSS
VL: EIVLTQSPATLSLSPGERATLSCRASQSVGSNLAWYQQKPGQAPRLLIYSASYRYTGIPARFSGSGSGTDFTLTISSLEPEDFAVYYCQQYSTDPLTFGGGTKVEIK
notes: v-domains built as m25; also called D-A6 Fab fragment
Kd [8]: 120 nM | koff [8]: 0.011 s⁻¹ | kon [8]: 92000 M⁻¹ s⁻¹ | Kd [9]: 57 nM | koff [9]: 0.0021 s⁻¹ | kon [9]: 37000 M⁻¹ s⁻¹ | fold improved affinity against VH1/VL1 Fab [10]: ~4 fold

B7: MH IgG1 (Maximally Humanized designer clone) (antibody, V domains shown)
VH: EVQLVESGGGLVQPGGSLRLSCAASGFSLSTSGYGMSWVRQAPGKGLEWVAHIWWDDEKYYVDSVKGRFTISRDNAKNSLYLQMNSLRAEDTAVYYCARTRQYFPFAYWGQGTLVTVSS
VL: EIVLTQSPATLSLSPGERATLSCRASQSVGSNLAWYQQKPGQAPRLLIYSASYRATGIPARFSGSGSGTDFTLTISSLEPEDFAVYYCQQYSTDPLTFGGGTKVEIK
notes: Human IgG1, designer clone; also called Clone MH
binding result [11]: binds
